Blank lines part the entries; values can stand above or below the binder they belong to. Where no end group is shown, it is not given here. [ ]: non-standard residue; d: D form. pY = N[C@@H](Cc1ccc(OP(=O)(O)O)cc1)C(=O)O
Tests used:
[1] = molecular target: T1, M. musculus LNK SH2 domain (residues 324–446), wild type (mouse, UniProt O09039 324-446); assay: SPR; competition: biotinylated IL6ST pY757 peptide immobilised on a streptavidin chip; 0.1–0.5 μM WT LNK SH2 domain pre-incubated with phosphopeptide and flowed over; 10 mM HEPES pH 7.4, 150 mM NaCl, 3.4 mM EDTA, 0.005% Tween 20; response normalised to LNK only, IC50 fit; conditions: both partners purified
T1 construct: LNK (SH2B3), mouse, SH2 domain with N-terminal helix, residues 324-446; vector pET-50b(+); also called WT LNK SH2; SH2B3 SH2 domain; source: E. coli (tuner (DE3), BL21(DE3) or C43), purified (His-Tag resin, TEV cleavage, SEC); not shown: NusA, N-terminal, cleaved

[2] = molecular target: T1, M. musculus LNK SH2 domain (residues …); assay: as above; conditions: both partners purified; remark: listed apart in the source

T1 sequence (O09039 324-446): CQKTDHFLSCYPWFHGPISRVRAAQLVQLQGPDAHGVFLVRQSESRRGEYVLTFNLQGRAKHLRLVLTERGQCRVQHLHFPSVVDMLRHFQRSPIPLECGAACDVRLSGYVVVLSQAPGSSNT

IC50 [1]: > 5000 nM
Binder: FTPD[pY]RLLTEND [JAK2 pY813 peptide mutant +1R]

IC50 [1]: 60 nM | IC50 [2]: 138 nM
B1: JAK2 pY813 phosphopeptide (12-mer) (peptide)
peptide: FTPD[pY]ELLTEND
notes: JAK2, stretch around Y813; also called WT pY813 peptide

IC50 [2]: 661 nM
Binder: PHLK[pY]LYLVVS (also: phosphotyrosine at 454 (Y5 or Y7), EPOR, intracellular site Y454) [EPOR pY454 phosphopeptide]

IC50 [2]: > 10000 nM
B2: MPL pY631 phosphopeptide (peptide)
peptide: LPLS[pY]WQQP
notes: MPL (TPO receptor), intracellular site Y631; also called TPOR pY631

From publication PMC8528861, “Structural and functional analysis of target recognition by the lymphocyte adaptor protein LNK” (Nature Communications, 2021)
